Experiments:
Type in all cases: in vivo
[1] = tested on: mustard beetle larvae (Phaedon cochleariae); test: Phaedon cochleariae larvae - spray application (Example 1); settings: 48 h, read-out: Mortality in % after 2d
Protocol: (§1) Solvent: 78.0 parts by weight of acetone
(§2) • 1.5 parts by weight of dimethylformamide Emulsifier: 0.5 parts by weight of alkylaryl polyglycolether
To produce a suitable preparation of active compound, 1 part by weight of active compound is mixed with the stated amount of solvent and emulsifier, and the concentrate is diluted with emulsifier-containing water to the desired concentration. The preparation of bacteria, fungi or yeast products contains 10^9-10^10 spores/g or cells/g, the preparation of the virus 10^13 particles/1. To produce a suitable preparation of a biological suspension the cells, viruses or spores are diluted with emulsifier-containing water to the desired concentration.
Chinese cabbage (Brassica pekinensis) leaf-discs are sprayed with a preparation of the active ingredient of the desired concentration. Once dry, the leaf discs are infested with mustard beetle larvae (Phaedon cochleariae).
After the specified period of time, mortality in % is determined. 100% means that all the beetle larvae have been killed; 0% means that none of the beetle larvae have been killed. The mortality values thus determined are recalculated using the Colby-formula.

[2] = tested on: fall armyworm larvae (Spodoptera frugiperda); test: Spodoptera frugiperda - spray application (Example 2); settings: 1.5 g ai/ha
Protocol: as §1, §2
To produce a suitable preparation of active compound, 1 part by weight of active compound is mixed with the stated amount of solvent and emulsifier, and the concentrate is diluted with emulsifier-containing water to the desired concentration. The preparation of the bacteria, fungi or yeast products contains 10^9-10^10 spores/g or cells/g, the preparation of the virus 10^13 particles/1. To produce a suitable preparation of a biological suspension the cells, viruses or spores are diluted with emulsifier-containing water to the desired concentration.
Corn (Zea mais) leaf-discs are sprayed with a preparation of the active ingredient of the desired concentration. Once dry, the leaf discs are infested with fall armyworm larvae (Spodoptera frugiperda).
After the specified period of time, mortality in % is determined. 100% means that all the caterpillars have been killed; 0% means that none of the caterpillars have been killed. The mortality values thus determined are recalculated using the Colby-formula.

[3] = tested on: two spotted spider mite (Tetranychus urticae); test: Tetranychus urticae test (OP-resistant, spray application) (Example 3); settings: 1.5 g ai/ha
Protocol: Solvent: 78 parts by weight acetone
• 1.5 parts by weight dimethylformamide Wetting agent: 0.5 parts by weight alkylarylpolyglcolether
To produce a suitable preparation of active compound, 1 part by weight of active compound is mixed with the stated amount of solvent and emulsifier, and the concentrate is diluted with emulsifier-containing water to the desired concentration. The preparation of the bacteria, fungi or yeast products contains 10^9-10^10 spores/g or cells/g. To produce a suitable preparation of a biological suspension the cells, viruses or spores are diluted with emulsifier-containing water to the desired concentration.
French beans (Phaseolus vulgaris) infected with all developmental stages of the two spotted spider mite (Tetranychus urticae), are sprayed with a preparation of the active ingredient at the desired dose rates.
After the specified period of time, activity in % is determined Thus 100% means that all spider mites have been killed and 0% means that none of the spider mites have been killed. The mortality values determined thus are recalculated using the Colby-formula (see sheet 1).

| Molecule | mortality at 1000 g/ha [1] [%] | Mortality in % after 2d [2] [%] | Mortality in % after 6d [3] [%] |
| --- | --- | --- | --- |
| Cc1ccc(C(C)C)c(O)c1 [Thymol] | 0 |  |  |
| Harpin: Harpin protein, isolated from Erwinia amylovora (products known as Messenger, ProAct, Employ) (protein, UniProt Q01099 1-403, looked up) Harpin HrpN: MSLNTSGLGASTMQISIGGAGGNNGLLGTSRQNAGLGGNSALGLGGGNQNDTVNQLAGLLTGMMMMMSMMGGGGLMGGGLGGGLGNGLGGSGGLGEGLSNALNDMLGGSLNTLGSKGGNNTTSTTNSPLDQALGINSTSQNDDSTSGTDSTSDSSDPMQQLLKMFSEIMQSLFGDGQDGTQGSSSGGKQPTEGEQNAYKKGVTDALSGLMGNGLSQLLGNGGLGGGQGGNAGTGLDGSSLGGKGLQNLSGPVDYQQLGNAVGTGIGMKAGIQALNDIGTHSDSSTRSFVNKGDRAMAKEIGQFMDQYPEVFGKPQYQKGPGQEVKTDDKSWAKALSKPDDDGMTPASMEQFNKAKGMIKSAMAGDTGNGNLQARGAGGSSLGIDAMMAGDAINNMALGKLGAA |  | 0 | 0 |
